In US20110111461A1 (Hoffmann-La Roche, published 2011):

What follows are binders tested against T1, human epidermal growth factor receptor (EGFR) (human, UniProt P00533 25-1210) (assay: flow cytometry on A431 cells; light chain variants paired with I-HHD).
T1 construct: whole, on cells; also called HER-1; ErbB1
Procedure: (§1) The purified, monomeric humanized antibody variants were tested for binding to human epidermal growth factor receptor (EGFR, also referred to in the literature as HER-1 or ErbB1) on the A431 human epidermal cell line, using a flow cytometry-based assay. 200,000 cells (e.g., from human A431 cell line) in 180 μl FACS buffer (PBS containing 2% FCS and 5 mM EDTA) were transferred to 5 ml polystyrene tubes and 20 μl 10 fold concentrated anti-EGFR antibody (primary antibody) samples (1-5000 ng/ml final concentration) or PBS only were added. After gently mixing the samples, the tubes were incubated at 4° C. for 30 min in the dark. Subsequently, samples were washed twice with FACS buffer and pelleted at 300×g for 3 min. Supernatant was aspirated off and cells were taken up in 50 μl FACS buffer and 2 μl secondary antibody (anti-Fc-specific F(ab′)2-FITC fragments (Jackson Immuno Research Laboratories, USA)) was added and the tubes were incubated at 4° C. for 30 min. Samples were washed twice with FACS buffer and taken up in 500 μl of FACS buffer for analysis by Flow Cytometry. Binding was determined by plotting the geometric mean fluorescence against the antibody concentrations.
Each of the I-KC variant constructs (I-KCl to I-KC9) was paired with a heavy chain variable region comprising construct I-HHD (SEQ ID NO:16 and SEQ ID NO:15) and a binding assay performed according to the methods described in the previous examples. Constructs I-KCl to I-KC9 were compared to the I-KC construct (SEQ ID NO:46 and SEQ ID NO:45) for binding affinity to EGFR in A431 target cells (FIG. 29). […] Therefore, when paired with a chimeric (e.g., humanized) heavy chain construct specific for EGFR, the light chain can be entirely human (e.g., from a human light chain V gene sequence) and still retain specific binding for EGFR. In particular, CDR2 and CDR3 can be entirely in human germline form.

binding result | Binder
binds | humanized ICR62 antibody I-HHD / I-KC1 (antibody, human IgG1, V domains shown, also called I-KCl) VH: QVQLVQSGAEVKKPGSSVKVSCKASGFTFTDYKIHWVRQAPGQGLEWMGYFNPNSGYSTYAQKFQGRVTITADKSTSTAYMELSSLRSEDTAVYYCARLSPGGYYVMDAWGQGTTVTVSS VL: DIQMTQSPSSLSASVGDRVTITCRASQGIRNYLNWYQQKPGKAPKRLIYNTNNLQTGVPSRFSGSGSGTEFTLTISSLQPEDFATYYCLQHNSFPTFGQGTKLEIKR
binds | humanized ICR62 antibody I-HHD / I-KC2 (antibody, human IgG1, V domains shown) VH: QVQLVQSGAEVKKPGSSVKVSCKASGFTFTDYKIHWVRQAPGQGLEWMGYFNPNSGYSTYAQKFQGRVTITADKSTSTAYMELSSLRSEDTAVYYCARLSPGGYYVMDAWGQGTTVTVSS VL: DIQMTQSPSSLSASVGDRVTITCRASQGINNWLNWYQQKPGKAPKRLIYNTNNLQTGVPSRFSGSGSGTEFTLTISSLQPEDFATYYCLQHNSFPTFGQGTKLEIKR

These binders were tested against T1, human epidermal growth factor receptor … (assay: flow cytometry on A431 cells).
Procedure: as §1
Only the I-HHA has strongly diminished binding activity (see FIG. 2). […] In this experiment, either the light chain, the heavy chain or both chains simultaneously of the ch-ICR62 were replaced by the above mentioned humanized constructs.

Binder | binding result | EC50 [µg/mL] | EC50 fold increase relative to ch-ICR62, I-HLA1 and I-HLA2 [fold] | EC50 fold decrease relative to ch-ICR62 [fold]
humanized ICR62 antibody I-HHB / I-KC (not glycoengineered) (antibody, human IgG1, V domains shown, also called I-HHB/KC) VH: QVQLVQSGAEVKKPGSSVKVSCKGSGFTFTDYKIHWVRQAPGQGLEWMGYFNPNSGYSTYAQKFQGRVTITADKSTSTAYMELSSLRSEDTAVYYCARLSPGGYYVMDAWGQGTTVTVSS VL: DIQMTQSPSSLSASVGDRVTITCRASQGINNYLNWYQQKPGKAPKRLIYNTNNLQTGVPSRFSGSGSGTEFTLTISSLQPEDFATYYCLQHNSFPTFGQGTKLEIKR | binds | – | – | –
I-HHC heavy chain combined with the chimeric ICR62 light chain (rVL) (antibody, human IgG1, V domains shown, also called I-HHC / rVL) VH: QVQLVQSGAEVKKPGSSVKVSCKGSGFTFTDYKIHWVRQAPGQGLEWMGYFNPNSGYSTYNEKFKSRVTITADKSTSTAYMELSSLRSEDTAVYYCARLSPGGYYVMDAWGQGTTVTVSS VL: DIQMTQSPSFLSASVGDRVTINCKASQNINNYLNWYQQKLGEAPKRLIYNTNNLQTGIPSRFSGSGSGTDYTLTISSLQPEDFATYFCLQHNSFPTFGAGTKLELKR | binds | – | – | –
humanized ICR62 antibody I-HLA2 / I-KC (antibody, human IgG1, V domains shown) VH: QVQLVQSGAEVKKPGASVKVSCKASGFTFTDYYMHWVRQAPGQGLEWMGWINPNSGYSTYNEKFQGQVTISADKSISTAYLQWSSLKASDTAMYYCARLSPGGYYVMDAWGQGTTVTVSS VL: DIQMTQSPSSLSASVGDRVTITCRASQGINNYLNWYQQKPGKAPKRLIYNTNNLQTGVPSRFSGSGSGTEFTLTISSLQPEDFATYYCLQHNSFPTFGQGTKLEIKR | – | ~0.3 | – | –
humanized ICR62 antibody I-HLA9 / I-KC (antibody, human IgG1, V domains shown) VH: EVQLVQSGAEVKKPGESLKISCKGSGYSFTDYKIHWVRQAPGQGLEWMGYFNPNSGYSTYAQKFQGRVTITADKSTSTAYMELSSLRSEDTAVYYCARLSPGGYYVMDAWGQGTTVTVSS VL: DIQMTQSPSSLSASVGDRVTITCRASQGINNYLNWYQQKPGKAPKRLIYNTNNLQTGVPSRFSGSGSGTEFTLTISSLQPEDFATYYCLQHNSFPTFGQGTKLEIKR | binds | – | – | –
humanized ICR62 antibody I-HLA7 / I-KC (antibody, human IgG1, V domains shown) VH: QMQLVQSGPEVKKPGTSVKVSCKASGFTFTDYKIHWVRQARGQRLEWIGWINPNSGYSTYNEKFQGQVTISADKSISTAYLQWSSLKASDTAMYYCARLSPGGYYVMDAWGQGTTVTVSS VL: DIQMTQSPSSLSASVGDRVTITCRASQGINNYLNWYQQKPGKAPKRLIYNTNNLQTGVPSRFSGSGSGTEFTLTISSLQPEDFATYYCLQHNSFPTFGQGTKLEIKR | binds | – | – | –
humanized ICR62 antibody I-HLA / I-KA (antibody, human IgG1, V domains shown) VH: QVQLVQSGAEVKKPGASVKVSCKASGFTFTDYYMHWVRQAPGQGLEWMGWINPNSGYSTYAQKFQGRVTMTADTSISTAYMELSRLRSDDTAVYYCARLSPGGYYVMDAWGQGTTVTVSS VL: DIQMTQSPSSLSASVGDRVTITCRASQGINNYLNWYQQKPGKAPKRLIYNTNNLQTGVPSRFSGSGSGTEYTLTISSLQPEDFATYYCLQHNSFPTFGQGTKLEIKR | binds | – | – | –
humanized ICR62 antibody I-HLA / I-KB (antibody, human IgG1, V domains shown) VH: QVQLVQSGAEVKKPGASVKVSCKASGFTFTDYYMHWVRQAPGQGLEWMGWINPNSGYSTYAQKFQGRVTMTADTSISTAYMELSRLRSDDTAVYYCARLSPGGYYVMDAWGQGTTVTVSS VL: DIQMTQSPSSLSASVGDRVTITCKASQNINNYLNWYQQKPGKAPKRLIYNTNNLQTGVPSRFSGSGSGTEYTLTISSLQPEDFATYYCLQHNSFPTFGQGTKLEIKR | binds | – | – | –
humanized ICR62 antibody I-HHF / I-KC (antibody, human IgG1, V domains shown) VH: QVQLVQSGAEVKKPGSSVKVSCKGSGFTFTDYKIHWVRQAPGQGLEWMGYFNPNSGYSNYAQKFQGRVTITADKSTSTAYMELSSLRSEDTAVYYCARLSPGGYYVMDAWGQGTTVTVSS VL: DIQMTQSPSSLSASVGDRVTITCRASQGINNYLNWYQQKPGKAPKRLIYNTNNLQTGVPSRFSGSGSGTEFTLTISSLQPEDFATYYCLQHNSFPTFGQGTKLEIKR | binds | – | – | –

Further lines, results first:

binding result | EC50 [µg/mL] | EC50 fold increase relative to ch-ICR62, I-HLA1 and I-HLA2 [fold] | EC50 fold decrease relative to ch-ICR62 [fold] | Binder
– | – | 2 | – | humanized ICR62 antibody I-HLA4 / I-KC (antibody, human IgG1, V domains shown) VH: QVQLVQSGAEVKKPGASVKVSCKASGYTFTDYYMHWVRQAPGQGLEWMGWINPNSGYSTYNEKFQGQVTISADKSISTAYLQWSSLKASDTAMYYCARLSPGGYYVMDAWGQGTTVTVSS VL: DIQMTQSPSSLSASVGDRVTITCRASQGINNYLNWYQQKPGKAPKRLIYNTNNLQTGVPSRFSGSGSGTEFTLTISSLQPEDFATYYCLQHNSFPTFGQGTKLEIKR
– | ~0.3 | – | – | humanized ICR62 antibody I-HLA1 / I-KC (antibody, human IgG1, V domains shown) VH: QVQLVQSGAEVKKPGASVKVSCKASGFTFTDYYMHWVRQAPGQGLEWMGWINPNSGYSTYSPSFQGQVTISADKSISTAYLQWSSLKASDTAMYYCARLSPGGYYVMDAWGQGTTVTVSS VL: DIQMTQSPSSLSASVGDRVTITCRASQGINNYLNWYQQKPGKAPKRLIYNTNNLQTGVPSRFSGSGSGTEFTLTISSLQPEDFATYYCLQHNSFPTFGQGTKLEIKR
– | – | 2 | – | humanized ICR62 antibody I-HLA3 / I-KC (antibody, human IgG1, V domains shown) VH: QVQLVQSGAEVKKPGASVKVSCKASGYTFTDYYMHWVRQAPGQGLEWMGWINPNSGYSTYSPSFQGQVTISADKSISTAYLQWSSLKASDTAMYYCARLSPGGYYVMDAWGQGTTVTVSS VL: DIQMTQSPSSLSASVGDRVTITCRASQGINNYLNWYQQKPGKAPKRLIYNTNNLQTGVPSRFSGSGSGTEFTLTISSLQPEDFATYYCLQHNSFPTFGQGTKLEIKR
– | – | 2 | – | humanized ICR62 antibody I-HLA5 / I-KC (antibody, human IgG1, V domains shown) VH: QMQLVQSGPEVKKPGTSVKVSCKASGFTFTDYYMHWVRQAPGQGLEWMGWINPNSGYSTYSPSFQGQVTISADKSISTAYLQWSSLKASDTAMYYCARLSPGGYYVMDAWGQGTTVTVSS VL: DIQMTQSPSSLSASVGDRVTITCRASQGINNYLNWYQQKPGKAPKRLIYNTNNLQTGVPSRFSGSGSGTEFTLTISSLQPEDFATYYCLQHNSFPTFGQGTKLEIKR
– | – | 2 | – | humanized ICR62 antibody I-HLA6 / I-KC (antibody, human IgG1, V domains shown) VH: QMQLVQSGPEVKKPGTSVKVSCKASGFTFTDYYMHWVRQAPGQGLEWMGWINPNSGYSTYNEKFQGQVTISADKSISTAYLQWSSLKASDTAMYYCARLSPGGYYVMDAWGQGTTVTVSS VL: DIQMTQSPSSLSASVGDRVTITCRASQGINNYLNWYQQKPGKAPKRLIYNTNNLQTGVPSRFSGSGSGTEFTLTISSLQPEDFATYYCLQHNSFPTFGQGTKLEIKR
– | – | – | 2 | humanized ICR62 antibody I-HLA8 / I-KC (antibody, human IgG1, V domains shown) VH: QMQLVQSGPEVKKPGTSVKVSCKASGFTFTDYKIHWVRQAPGQGLEWMGYFNPNSGYSTYAQKFQGRVTITADKSTSTAYMELSSLRSEDTAVYYCARLSPGGYYVMDAWGQGTTVTVSS VL: DIQMTQSPSSLSASVGDRVTITCRASQGINNYLNWYQQKPGKAPKRLIYNTNNLQTGVPSRFSGSGSGTEFTLTISSLQPEDFATYYCLQHNSFPTFGQGTKLEIKR
binds | – | – | – | humanized ICR62 antibody I-HHG / I-KC (antibody, human IgG1, V domains shown) VH: QVQLVQSGAEVKKPGSSVKVSCKGSGFTFTDYKIHWVRQAPGQGLEWMGYFNPNSGYATYAQKFQGRVTITADKSTSTAYMELSSLRSEDTAVYYCARLSPGGYYVMDAWGQGTTVTVSS VL: DIQMTQSPSSLSASVGDRVTITCRASQGINNYLNWYQQKPGKAPKRLIYNTNNLQTGVPSRFSGSGSGTEFTLTISSLQPEDFATYYCLQHNSFPTFGQGTKLEIKR
binds | – | – | – | humanized ICR62 antibody I-HHC / I-KB (antibody, human IgG1, V domains shown) VH: QVQLVQSGAEVKKPGSSVKVSCKGSGFTFTDYKIHWVRQAPGQGLEWMGYFNPNSGYSTYNEKFKSRVTITADKSTSTAYMELSSLRSEDTAVYYCARLSPGGYYVMDAWGQGTTVTVSS VL: DIQMTQSPSSLSASVGDRVTITCKASQNINNYLNWYQQKPGKAPKRLIYNTNNLQTGVPSRFSGSGSGTEYTLTISSLQPEDFATYYCLQHNSFPTFGQGTKLEIKR
